These results are taken from paper PMC6921968.

For this test, the target named is SpyCatcher::HBsAg VLP (hepatitis B surface antigen genetically fused to SpyCatcher) (Streptococcus pyogenes | hepatitis B virus). Kind of test: covalent (isopeptide) coupling, SDS-PAGE with Coomassie staining and densitometry; SpyCatcher::HBsAg VLP incubated with Pfs25::SpyTag at molar ratio 1.5, 0.5 or 0.1, 3 h to overnight at room temperature, with 10x reaction buffer (40 mM Na2HPO4, 200 mM sodium citrate, pH 6.2); dialysed (100 kDa cut-off) against TBS; conjugation efficiency = % of total SpyCatcher::HBsAg coupled to Pfs25::SpyTag.

Turning to Pfs25::SpyTag (Pfs25-SpyTag-Ctag), the conjugation efficiency (% of total SpyCatcher::HBsAg coupled to Pfs25::SpyTag) at molar ratio 0.1 stood at 10%, the conjugation efficiency (% of total SpyCatcher::HBsAg coupled to Pfs25::SpyTag) at molar ratio 0.5 stood at 50% and the conjugation efficiency (% of total SpyCatcher::HBsAg coupled to Pfs25::SpyTag) at molar ratio 1.5 was greater than 90%.
